No end group written: not given here.
B1: CC1: EFhd2 coiled-coil domain (residues 199-240) with CysGlyGly at the N-terminus (domain or fragment, human)
chain: CGGQAINVSSRFEEEIKAEQEERKKQAEEMKQRKAAFKELQSTFK
notes: engineered CysGlyGly at the N-terminus of the fragment; human EFhd2/Swiprosin-1 predicted coiled-coil domain, residues 199-240; source: E. coli, purified (pGEX-4T-1; GST removed by thrombin); not shown: GST, N-terminal, cleaved
B2: CC2: EFhd2 coiled-coil domain (residues 199-240) with GlyGlyCys at the C-terminus (domain or fragment, human)
chain: QAINVSSRFEEEIKAEQEERKKQAEEMKQRKAAFKELQSTFKGGC
modifications: also: disulfide-linked dimer via Cys
notes: human EFhd2/Swiprosin-1 predicted coiled-coil domain, residues 199-240; engineered GlyGlyCys at the C-terminus of the fragment; source: E. coli, purified (modified pET-21a, same procedure as the other EFhd2 proteins); not shown: His6, N-terminal, kept

Target: the molecule itself
Assay: cross-linking; disulfide cross-linking of engineered terminal Cys residues; purified fragments on SDS-PAGE under non-reducing conditions (only a monomer band under reducing conditions)

Protein | stoichiometry N
B1 | 2
B2 | 2

— publication PMC5156911, “Structural implications of Ca^2+-dependent actin-bundling function of human EFhd2/Swiprosin-1” (Scientific Reports, 2016)
